# According to patent US8642284:
# What was measured:
# [1] = target: histone H2A (calf thymus), P0C0S9
# [2] = target: histone H2B (calf thymus), P62808
# [3] = target: histone H3 (calf thymus), intact protein, P68432
# [4] = target: histone H3 N-terminal tail peptide (residues 1-20) di-acetylated at lysines 9 and 14
# [5] = target: histone H4 (calf thymus), P62803
# [6] = target: histone H4 N-terminal tail peptide (residues 1-20) acetylated at Lys16
# [7] = target: unacetylated histone H3 N-terminal tail peptide (residues 1-20)
protein,measurement,setting,value
recombinant 6xHis-tagged full-length mSir2α (protein) MADEVALALQAAGSPSAAAAMEAASQPADEPLRKRPRRDGPGLGRSPGEPSAAVAPAAAGCEAASAAAPAALWREAAGAAASAEREAPATAVAGDGDNGSGLRREPRAADDFDDDEGEEEDEAAAAAAAAAIGYRDNLLLTDGLLTNGFHSCESDDDDRTSHASSSDWTPRPRIGPYTFVQQHLMIGTDPRTILKDLLPETIPPPELDDMTLWQIVINILSEPPKRKKRKDINTIEDAVKLLQECKKIIVLTGAGVSVSCGIPDFRSRDGIYARLAVDFPDLPDPQAMFDIEYFRKDPRPFFKFAKEIYPGQFQPSLCHKFIALSDKEGKLLRNYTQNIDTLEQVAGIQRILQCHGSFATASCLICKYKVDCEAVRGDIFNQVVPRCPRCPADEPLAIMKPEIVFFGENLPEQFHRAMKYDKDEVDLLIVIGSSLKVRPVALIPSSIPHEVPQILINREPLPHLHFDVELLGDCDVIINELCHRLGGEYAKLCCNPVKLSEITEKPPRPQKELVHLSELPPTPLHISEDSSSPERTVPQDSSVIATLVDQATNNNVNDLEVSESSCVEEKPQEVQTSRNVENINVENPDFKAVGSSTADKNERTSVAETVRKCWPNRLAKEQISKRLEGNQYLFVPPNRYIFHGAEVYSDSEDDVLSSSSCGSNSDSGTCQSPSLEEPLEDESEIEEFYNGLEDDTERPECAGGSGFGADGGDQEVVNEAIATRQELTDVNYPSDKS,"ADP-ribosylation (transfer of 32P from NAD, SDS-PAGE)",histone H1 (calf thymus),"but not to H1, H2A and H4"
same,"ADP-ribosylation (transfer of 32P from NAD, SDS-PAGE)",[1],"but not to H1, H2A and H4"
same,"ADP-ribosylation (transfer of 32P from NAD, SDS-PAGE)",[2],transferred radioactive ADP-ribose to H2B and H3
same,"ADP-ribosylation (transfer of 32P from NAD, SDS-PAGE)",[3],transferred radioactive ADP-ribose to H2B and H3
same,"ADP-ribosylation of peptide (32P-NAD, thin layer chromatography)",[4],Both the yeast and mouse Sir2 modified only the diacetylated H3 tail peptide
same,NAD-dependent deacetylation (HPLC),[4],gave rise to the same array of products with a similar yield as the yeast enzyme
same,"ADP-ribosylation (transfer of 32P from NAD, SDS-PAGE)",[5],"but not to H1, H2A and H4"
same,ADP-ribosyltransferase and NAD hydrolase activities (thin layer chromatography),[6],Both ADP-ribosylation and NAD hydrolysis were stimulated by the Lys16Ac peptide
same,"ADP-ribosylation of peptide (32P-NAD, thin layer chromatography)",[7],modified only the diacetylated H3 tail peptide (unacetylated peptide not modified)
recombinant mSir2α mutant R266A (protein) MADEVALALQAAGSPSAAAAMEAASQPADEPLRKRPRRDGPGLGRSPGEPSAAVAPAAAGCEAASAAAPAALWREAAGAAASAEREAPATAVAGDGDNGSGLRREPRAADDFDDDEGEEEDEAAAAAAAAAIGYRDNLLLTDGLLTNGFHSCESDDDDRTSHASSSDWTPRPRIGPYTFVQQHLMIGTDPRTILKDLLPETIPPPELDDMTLWQIVINILSEPPKRKKRKDINTIEDAVKLLQECKKIIVLTGAGVSVSCGIPDFASRDGIYARLAVDFPDLPDPQAMFDIEYFRKDPRPFFKFAKEIYPGQFQPSLCHKFIALSDKEGKLLRNYTQNIDTLEQVAGIQRILQCHGSFATASCLICKYKVDCEAVRGDIFNQVVPRCPRCPADEPLAIMKPEIVFFGENLPEQFHRAMKYDKDEVDLLIVIGSSLKVRPVALIPSSIPHEVPQILINREPLPHLHFDVELLGDCDVIINELCHRLGGEYAKLCCNPVKLSEITEKPPRPQKELVHLSELPPTPLHISEDSSSPERTVPQDSSVIATLVDQATNNNVNDLEVSESSCVEEKPQEVQTSRNVENINVENPDFKAVGSSTADKNERTSVAETVRKCWPNRLAKEQISKRLEGNQYLFVPPNRYIFHGAEVYSDSEDDVLSSSSCGSNSDSGTCQSPSLEEPLEDESEIEEFYNGLEDDTERPECAGGSGFGADGGDQEVVNEAIATRQELTDVNYPSDKS,mono-ADP-ribosylation activity relative to wild type (Phosphorimaging),[2],18% for R266A
recombinant mSir2α mutant H355A (protein) MADEVALALQAAGSPSAAAAMEAASQPADEPLRKRPRRDGPGLGRSPGEPSAAVAPAAAGCEAASAAAPAALWREAAGAAASAEREAPATAVAGDGDNGSGLRREPRAADDFDDDEGEEEDEAAAAAAAAAIGYRDNLLLTDGLLTNGFHSCESDDDDRTSHASSSDWTPRPRIGPYTFVQQHLMIGTDPRTILKDLLPETIPPPELDDMTLWQIVINILSEPPKRKKRKDINTIEDAVKLLQECKKIIVLTGAGVSVSCGIPDFRSRDGIYARLAVDFPDLPDPQAMFDIEYFRKDPRPFFKFAKEIYPGQFQPSLCHKFIALSDKEGKLLRNYTQNIDTLEQVAGIQRILQCAGSFATASCLICKYKVDCEAVRGDIFNQVVPRCPRCPADEPLAIMKPEIVFFGENLPEQFHRAMKYDKDEVDLLIVIGSSLKVRPVALIPSSIPHEVPQILINREPLPHLHFDVELLGDCDVIINELCHRLGGEYAKLCCNPVKLSEITEKPPRPQKELVHLSELPPTPLHISEDSSSPERTVPQDSSVIATLVDQATNNNVNDLEVSESSCVEEKPQEVQTSRNVENINVENPDFKAVGSSTADKNERTSVAETVRKCWPNRLAKEQISKRLEGNQYLFVPPNRYIFHGAEVYSDSEDDVLSSSSCGSNSDSGTCQSPSLEEPLEDESEIEEFYNGLEDDTERPECAGGSGFGADGGDQEVVNEAIATRQELTDVNYPSDKS,mono-ADP-ribosylation activity relative to wild type (Phosphorimaging),[2],completely abolished the activity
recombinant mSir2α mutant P285A (protein) MADEVALALQAAGSPSAAAAMEAASQPADEPLRKRPRRDGPGLGRSPGEPSAAVAPAAAGCEAASAAAPAALWREAAGAAASAEREAPATAVAGDGDNGSGLRREPRAADDFDDDEGEEEDEAAAAAAAAAIGYRDNLLLTDGLLTNGFHSCESDDDDRTSHASSSDWTPRPRIGPYTFVQQHLMIGTDPRTILKDLLPETIPPPELDDMTLWQIVINILSEPPKRKKRKDINTIEDAVKLLQECKKIIVLTGAGVSVSCGIPDFRSRDGIYARLAVDFPDLPDAQAMFDIEYFRKDPRPFFKFAKEIYPGQFQPSLCHKFIALSDKEGKLLRNYTQNIDTLEQVAGIQRILQCHGSFATASCLICKYKVDCEAVRGDIFNQVVPRCPRCPADEPLAIMKPEIVFFGENLPEQFHRAMKYDKDEVDLLIVIGSSLKVRPVALIPSSIPHEVPQILINREPLPHLHFDVELLGDCDVIINELCHRLGGEYAKLCCNPVKLSEITEKPPRPQKELVHLSELPPTPLHISEDSSSPERTVPQDSSVIATLVDQATNNNVNDLEVSESSCVEEKPQEVQTSRNVENINVENPDFKAVGSSTADKNERTSVAETVRKCWPNRLAKEQISKRLEGNQYLFVPPNRYIFHGAEVYSDSEDDVLSSSSCGSNSDSGTCQSPSLEEPLEDESEIEEFYNGLEDDTERPECAGGSGFGADGGDQEVVNEAIATRQELTDVNYPSDKS,mono-ADP-ribosylation activity relative to wild type (Phosphorimaging),[2],5% for P285A
